In PMC10881741, “Structural modifications toward improved lead-203/lead-212 peptide-based image-guided alpha-particle radiopharmaceutical therapies for neuroendocrine tumors” (European Journal of Nuclear Medicine and Molecular Imaging, 2023):
Like-named read-outs stand apart in the source and are kept apart here.

What was measured:
AR42J cells = assay: Cellular uptake of ^203Pb-labeled peptides; format: cell-based, rat; conditions: 2 h post-incubation
Method: PSCTOC and PSC-PEG2-TOC were labeled with ^203Pb and purified via HPLC for high molar activities as descibed in the Supplementary Material and in Li and collaborators. The HPLC-purified ^203Pb-labeled peptides (3.4 kBq) were incubated with AR42J cells in 24-well plates (pre-coated with poly-D-lysine), which were plated at a density of 2.0 × 10^5 cells 2 days prior, in the binding medium at 37 °C for up to 120 min. The cells were then washed twice and lysed, and the radioactivities of the samples were determined (n=3).

AR42J tumor xenograft = assay: In vivo biodistribution of ^203Pb-labeled peptides; set-up: species or system mice; conditions: DL-lysine 400 mg/kg, 3 h post-administration
Method: (§1) AR42J cells (5.0 × 10^6 cells/animal) were implanted subcutaneously on the left shoulder of female athymic nu/nu mice. […] Extra groups of mice were co-administered 37 kBq of ^203Pb-PSC-PEG2-TOC with DL-lysine (400 mg/kg) to determine the effect of amino acid on renal uptake of the radiopharmaceutical. Mice (n=3 per time point) were euthanized at 1, 3, and 24 h post-administration, and tumors and organs/tissues of interest were excised and weighed. The radioactivities of the samples were measured using the gamma counter.

[1] = In vivo biodistribution of ^203Pb-labeled peptides; set-up: species or system mice; conditions: female, athymic nu/nu, mouse, intravenous, total radioactivity
Method: as §1

SMILES: C[C@@H](O)[C@@H]1NC(=O)[C@H](CCCCN)NC(=O)[C@@H](Cc2c[nH]c3ccccc23)NC(=O)[C@H](Cc2ccc(O)cc2)NC(=O)[C@@H](NC(=O)[C@@H](Cc2ccccc2)NC(=O)CCOCCOCCNC(=O)CN2CCN(CC(=O)O)CCN(CC(N)=O)CCN(CC(=O)O)CC2)CSSC[C@@H](C(=O)N[C@H](CO)[C@@H](C)O)NC1=O [[^203Pb]Pb-PSC-PEG2-TOC, metal not drawn]
- Cellular uptake, factor vs. [^203Pb]Pb-PSCTOC (AR42J cells): 4
- Cellular uptake, fold vs. [^203Pb]Pb-DOTATOC (AR42J cells): 21 fold
- Cellular uptake (AR42J cells; 37 °C): 18%
- Reduction of renal accumulation by co-administration of DL-lysine (AR42J tumor xenograft): 56%
- tissue uptake at 1 h ([1]; blood, 37 kBq, 1 h post-administration, read-out: Blood): 0.36 ± 0.1 %ID/g
- tissue uptake at 3 h ([1]; blood, 37 kBq, 3 h (No Lys), Table S4 study, read-out: Blood): 0.07 ± 0.02 %ID/g
- tissue uptake at 3 h ([1]; blood, 37 kBq, 3 h post-administration, read-out: Blood): 0.05 %ID/g
- tissue uptake at 24 h ([1]; blood, 37 kBq, 24 h post-administration, read-out: Blood): 0.02 %ID/g
- tissue uptake at 1 h ([1]; blood, 1 h, DL-lysine co-administered, read-out: Blood): 0.36 ± 0.15 %ID/g
- tissue uptake at 3 h ([1]; blood, 3 h (Blocking): 10 nmol unlabeled PSC-PEG2-TOC co-administered, read-out: Blood): 0.13 ± 0.02 %ID/g
- tissue uptake at 3 h ([1]; blood, 3 h, DL-lysine co-administered, read-out: Blood): 0.07 ± 0.02 %ID/g
- tissue uptake at 6 h ([1]; blood, DL-lysine co-administered, read-out: Blood): 0.05 ± 0.03 %ID/g
- tissue uptake at 24 h ([1]; blood, 24 h, DL-lysine co-administered, read-out: Blood): 0.01 %ID/g
- tissue uptake at 3 h ([1]; bone marrow, 37 kBq, 3 h (No Lys), Table S4 study, read-out: Bone marrow): 4.17 ± 1.51 %ID/g
- tissue uptake at 1 h ([1]; bone marrow, 1 h, DL-lysine co-administered, read-out: Bone marrow): 2.42 ± 0.32 %ID/g
- tissue uptake at 3 h ([1]; bone marrow, 3 h (Blocking): 10 nmol unlabeled PSC-PEG2-TOC co-administered, read-out: Bone marrow): 0.99 ± 0.42 %ID/g
- tissue uptake at 3 h ([1]; bone marrow, 3 h, DL-lysine co-administered, read-out: Bone marrow): 4.13 ± 1.55 %ID/g
- tissue uptake at 6 h ([1]; bone marrow, DL-lysine co-administered, read-out: Bone marrow): 1.69 ± 0.34 %ID/g
- tissue uptake at 24 h ([1]; bone marrow, 24 h, DL-lysine co-administered, read-out: Bone marrow): 0.87 ± 0.6 %ID/g
- tissue uptake at 3 h ([1]; bone, 37 kBq, 3 h (No Lys), Table S4 study, read-out: Bone): 0.62 ± 0.24 %ID/g
- tissue uptake at 1 h ([1]; bone, 1 h, DL-lysine co-administered, read-out: Bone): 1.48 ± 0.34 %ID/g
- tissue uptake at 3 h ([1]; bone, 3 h (Blocking): 10 nmol unlabeled PSC-PEG2-TOC co-administered, read-out: Bone): 0.16 ± 0.1 %ID/g
- tissue uptake at 3 h ([1]; bone, 3 h, DL-lysine co-administered, read-out: Bone): 0.48 ± 0.05 %ID/g
- tissue uptake at 6 h ([1]; bone, DL-lysine co-administered, read-out: Bone): 0.35 ± 0.06 %ID/g
- tissue uptake at 24 h ([1]; bone, 24 h, DL-lysine co-administered, read-out: Bone): 0.16 ± 0.04 %ID/g
- tissue uptake at 1 h ([1]; brain, 37 kBq, 1 h post-administration, read-out: Brain): 0.04 ± 0.01 %ID/g
- tissue uptake at 3 h ([1]; brain, 37 kBq, 3 h (No Lys), Table S4 study, read-out: Brain): 0.08 ± 0.06 %ID/g
- tissue uptake at 3 h ([1]; brain, 37 kBq, 3 h post-administration, read-out: Brain): 0.02 %ID/g
- tissue uptake at 24 h ([1]; brain, 37 kBq, 24 h post-administration, read-out: Brain): 0.01 %ID/g
- tissue uptake at 1 h ([1]; brain, 1 h, DL-lysine co-administered, read-out: Brain): 0.04 ± 0.01 %ID/g
- tissue uptake at 3 h ([1]; brain, 3 h (Blocking): 10 nmol unlabeled PSC-PEG2-TOC co-administered, read-out: Brain): 0.03 ± 0.01 %ID/g
- tissue uptake at 3 h ([1]; brain, 3 h, DL-lysine co-administered, read-out: Brain): 0.03 ± 0.01 %ID/g
- tissue uptake at 6 h ([1]; brain, DL-lysine co-administered, read-out: Brain): 0.02 %ID/g
- tissue uptake at 24 h ([1]; brain, 24 h, DL-lysine co-administered, read-out: Brain): 0.01 %ID/g
- tissue uptake at 1 h ([1]; heart, 37 kBq, 1 h post-administration, read-out: Heart): 0.2 ± 0.05 %ID/g
- tissue uptake at 3 h ([1]; heart, 37 kBq, 3 h (No Lys), Table S4 study, read-out: Heart): 0.2 ± 0.13 %ID/g
- tissue uptake at 3 h ([1]; heart, 37 kBq, 3 h post-administration, read-out: Heart): 0.08 ± 0.02 %ID/g
- tissue uptake at 24 h ([1]; heart, 37 kBq, 24 h post-administration, read-out: Heart): 0.03 ± 0.01 %ID/g
- tissue uptake at 1 h ([1]; heart, 1 h, DL-lysine co-administered, read-out: Heart): 0.28 ± 0.08 %ID/g
- tissue uptake at 3 h ([1]; heart, 3 h (Blocking): 10 nmol unlabeled PSC-PEG2-TOC co-administered, read-out: Heart): 0.07 ± 0.03 %ID/g
- tissue uptake at 3 h ([1]; heart, 3 h, DL-lysine co-administered, read-out: Heart): 0.15 ± 0.03 %ID/g
- tissue uptake at 6 h ([1]; heart, DL-lysine co-administered, read-out: Heart): 0.07 ± 0.05 %ID/g
- tissue uptake at 24 h ([1]; heart, 24 h, DL-lysine co-administered, read-out: Heart): 0.03 ± 0.01 %ID/g
- tissue uptake at 1 h ([1]; kidneys, 37 kBq, 1 h post-administration, read-out: Kidneys): 20.6 %ID/g
- tissue uptake at 3 h ([1]; kidneys, 37 kBq, 3 h (No Lys), Table S4 study, read-out: Kidneys): 22.1 ± 1.92 %ID/g
- tissue uptake at 3 h ([1]; kidneys, 37 kBq, 3 h post-administration, read-out: Kidneys): 15.8 ± 1.11 %ID/g
- tissue uptake at 24 h ([1]; kidneys, 37 kBq, 24 h post-administration, read-out: Kidneys): 1.5 %ID/g
- tissue uptake at 1 h ([1]; kidneys, 1 h, DL-lysine co-administered, read-out: Kidneys): 13.3 ± 3.8 %ID/g
- tissue uptake at 3 h ([1]; kidneys, 3 h (Blocking): 10 nmol unlabeled PSC-PEG2-TOC co-administered, read-out: Kidneys): 40.9 ± 9.92 %ID/g
- tissue uptake at 3 h ([1]; kidneys, 3 h, DL-lysine co-administered, read-out: Kidneys): 9.84 ± 0.88 %ID/g
- tissue uptake at 6 h ([1]; kidneys, DL-lysine co-administered, read-out: Kidneys): 5.44 ± 0.63 %ID/g
- tissue uptake at 24 h ([1]; kidneys, 24 h, DL-lysine co-administered, read-out: Kidneys): 1.25 ± 0.86 %ID/g
- tissue uptake at 1 h ([1]; large intestine, 37 kBq, 1 h post-administration, read-out: Large intestine): 1.24 ± 0.12 %ID/g
- tissue uptake at 3 h ([1]; large intestine, 37 kBq, 3 h (No Lys), Table S4 study, read-out: Large intestine): 1.92 ± 0.56 %ID/g
- tissue uptake at 3 h ([1]; large intestine, 37 kBq, 3 h post-administration, read-out: Large intestine): 6.32 ± 0.68 %ID/g
- tissue uptake at 24 h ([1]; large intestine, 37 kBq, 24 h post-administration, read-out: Large intestine): 0.83 ± 0.45 %ID/g
- tissue uptake at 1 h ([1]; large intestine, 1 h, DL-lysine co-administered, read-out: Large intestine): 1.99 ± 0.31 %ID/g
- tissue uptake at 3 h ([1]; large intestine, 3 h (Blocking): 10 nmol unlabeled PSC-PEG2-TOC co-administered, read-out: Large intestine): 0.99 ± 0.46 %ID/g
- tissue uptake at 3 h ([1]; large intestine, 3 h, DL-lysine co-administered, read-out: Large intestine): 3.97 ± 0.97 %ID/g
- tissue uptake at 6 h ([1]; large intestine, DL-lysine co-administered, read-out: Large intestine): 3.34 ± 0.63 %ID/g
- tissue uptake at 24 h ([1]; large intestine, 24 h, DL-lysine co-administered, read-out: Large intestine): 1.01 ± 0.67 %ID/g
- tissue uptake at 1 h ([1]; liver, 37 kBq, 1 h post-administration, read-out: Liver): 0.36 ± 0.05 %ID/g
- tissue uptake at 3 h ([1]; liver, 37 kBq, 3 h (No Lys), Table S4 study, read-out: Liver): 0.31 ± 0.03 %ID/g
- tissue uptake at 3 h ([1]; liver, 37 kBq, 3 h post-administration, read-out: Liver): 0.23 ± 0.02 %ID/g
- tissue uptake at 24 h ([1]; liver, 37 kBq, 24 h post-administration, read-out: Liver): 0.08 ± 0.04 %ID/g
- tissue uptake at 1 h ([1]; liver, 1 h, DL-lysine co-administered, read-out: Liver): 0.44 ± 0.08 %ID/g
- tissue uptake at 3 h ([1]; liver, 3 h (Blocking): 10 nmol unlabeled PSC-PEG2-TOC co-administered, read-out: Liver): 0.3 ± 0.07 %ID/g
- tissue uptake at 3 h ([1]; liver, 3 h, DL-lysine co-administered, read-out: Liver): 0.25 ± 0.05 %ID/g
- tissue uptake at 6 h ([1]; liver, DL-lysine co-administered, read-out: Liver): 0.17 ± 0.02 %ID/g
- tissue uptake at 24 h ([1]; liver, 24 h, DL-lysine co-administered, read-out: Liver): 0.06 ± 0.01 %ID/g
- tissue uptake at 1 h ([1]; lung, 37 kBq, 1 h post-administration, read-out: Lung): 3.58 ± 1.64 %ID/g
